Assay results published in patent US20250304677A1 (VIB VZW, published 2025).

What was measured:
[1] = molecular target: T1, human folate receptor alpha (hFRα), recombinant protein (human, UniProt P15328 25-233); experiment: ELISA, periplasmic extract
T1 construct: Bought recombinant proteins (His-tagged, or biotinylated via Avi-tag, e.g. AcroBiosystems FO1-H82E2, F01-H52H1); also called hFOLR1; huFOLR1
Source text: (§1) From the lymphocytes of each llama a separate VHH library was constructed to select and screen for the presence of antigen-specific VHHs. To this end, total RNA from peripheral blood lymphocytes was used as template for first strand cDNA synthesis with an oligo ^{∘}dT) primer. Using this cDNA, the VHH encoding sequences were amplified by PCR, digested with PstI and NotI, cloned into the PstI and NotI sites of the phagemid vector pMECS and transformed into E. coli to generate VHH libraries. To enrich these libraries for FRα ^{∘}or FOLR1, as used interchangeably herein)-specific VHHs, a combinatorial panning approach on recombinant human and mouse FOLR1 was used followed by random selection and screening of clones by ELISA for the presence of antigen-specific VHHs in their periplasmic extracts ^{∘}PEs). In order to gauge the cross-reactivity for human and mouse FOLR1, each clone was tested on both antigens.
(§2) After panning of core76/77 on human and mouse folate receptor alpha ^{∘}FRα), […] were randomly selected from the second and third rounds and analyzed by ELISA on both human and mouse FRα for the presence of FRα-specific VHHs in their periplasmic extracts ^{∘}PE). This led to the identification of 98 hits. For these 98 hits, the off-rate ^{∘}koff) in the PE was determined by biolayer interferometry ^{∘}BLI) on both mouse and human FRα that was directly immobilized onto AR2G biosensors. The off-rates were calculated using a 1:1 binding model. […] Abbreviations: SE: standard error.

[2] = molecular target: T2, mouse folate receptor alpha (mFRα), recombinant protein (mouse, UniProt P35846 25-232); experiment: ELISA, periplasmic extract
T2 construct: Bought recombinant proteins (e.g. biotinylated, Acro Biosystems FO1-M82E9); also called mFOLR1; Ms FOLR1
T2 sequence (P35846 25-232 limits assumed): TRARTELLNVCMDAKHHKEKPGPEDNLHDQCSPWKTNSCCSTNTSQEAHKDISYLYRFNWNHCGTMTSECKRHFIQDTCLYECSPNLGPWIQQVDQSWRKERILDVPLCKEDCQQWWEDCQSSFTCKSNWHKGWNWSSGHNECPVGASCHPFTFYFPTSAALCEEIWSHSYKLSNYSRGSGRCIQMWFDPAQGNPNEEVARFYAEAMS
Source text: as §1, §2

[3] = molecular target: T1, human folate receptor alpha (hFRα), …; experiment: BLI, FRα on AR2G biosensors, 1:1 model
Method: (§3) As a next step, the kinetic binding constants were determined using BLI ^{∘}Table 3). […] Similar to the ELISA results ^{∘}FIG. 1A-B), higher binding affinities were measured for mouse FRα than human FRα, with KD values […] one order of magnitude in most cases. […] For 3HFO28, binding to human FRα could not be confirmed by BLI, and this VHH was excluded from further characterization.
(§4) The kinetic parameters were calculated using a 1:1 binding model.

[4] = molecular target: T2, mouse folate receptor alpha (mFRα), …; experiment: BLI, FRα on AR2G biosensors, 1:1 model
Method: as §3, §4

[5] = molecular target: T3, human folate receptor beta (FRβ) (human, UniProt P14207 17-230, limits assumed); experiment: method not named (follows the ELISA of Example 3)
T3 construct: also called hFOLR2; human FOLR2
T3 sequence (P14207 17-230 limits assumed): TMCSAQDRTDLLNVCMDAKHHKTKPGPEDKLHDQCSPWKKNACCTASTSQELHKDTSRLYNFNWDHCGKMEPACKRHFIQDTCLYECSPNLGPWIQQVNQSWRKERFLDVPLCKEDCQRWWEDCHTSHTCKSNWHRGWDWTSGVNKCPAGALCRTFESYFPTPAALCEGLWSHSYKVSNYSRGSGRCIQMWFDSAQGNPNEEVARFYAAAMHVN

[6] = molecular target: T1, human folate receptor alpha (hFRα), …; experiment: BLI, periplasmic extract, FRα on AR2G biosensors
Method: as §2

[7] = molecular target: T2, mouse folate receptor alpha (mFRα), …; experiment: BLI, periplasmic extract, FRα on AR2G biosensors
Method: as §2

[8] = molecular target: T2, mouse folate receptor alpha (mFRα), …; experiment: ELISA on recombinant mouse FOLR1, cMyc tag detection, normalised binding, non-linear fit
Method: (§5) Data were normalized and technical replicates were plotted as mean±SD. Data were fitted by non-linear regression and the half-maximal effective concentration ^{∘}EC50) was calculated using GraphPad Prism 9 software. ^{∘}FIG. 1C and FIG. 1D) Binding affinity determination of anti-FOLR1 VHHs for native FOLR1. Mouse ^{∘}FIG. 1C) or human FOLR1 FIG. 1D) was overexpressed on HEK293T cells and binding of the anti-FOLR1 VHHs was assessed using flow cytometry. The mean fluorescence intensity ^{∘}MFI) of the phycoerythrin signal was plotted for each VHH concentration. Data were fitted by non-linear regression using GraphPad Prism 9 software. ^{∘}FIG. 1E) Determination of the competition of representative family members with folic acid ^{∘}FA) using ELISA. Mouse FOLR1 was coated on the plate and was pre-incubated with or without 100 μM FA before adding the VHHs. Data were fitted by non-linear regression using GraphPad Prism 9 software.
(§6) In a first step, binding affinity and cross-reactivity of the purified VHHs to human and mouse FRα was assessed by ELISA, using detection of the cMyc tag ^{∘}FIG. 1A-B). […] 2HFO19 ^{∘}family 1) was the best binder of all tested VHHs to both mouse and human FRα with an EC₅₀ of 0.1 nM and 0.4 nM respectively ^{∘}FIG. 1A-B).

[9] = molecular target: T1, human folate receptor alpha (hFRα), …; experiment: ELISA on recombinant human FOLR1, cMyc tag detection, normalised binding, non-linear fit
Method: as §5, §6

[10] = molecular target: T4, mouse folate receptor alpha expressed on transfected HEK293T cells (mouse, UniProt P35846 25-232); experiment: flow cytometry on HEK293T cells overexpressing mouse FOLR1, His tag detection, PE MFI, non-linear fit
T4 construct: also called cell-expressed mouse FRα
T4 sequence (P35846 25-232 limits assumed): as the sequence (P35846 25-232 limits assumed) above
Method: as §5

[11] = molecular target: T5, human folate receptor alpha expressed on cells (transfected HEK293T, HeLa, MCF7, MDA-MB-231) (human, UniProt P15328 25-234); experiment: flow cytometry on HEK293T cells overexpressing human FOLR1, His tag detection, PE MFI, non-linear fit
T5 construct: HEK293T transiently transfected with human FOLR1; also called native human FRα; cell-expressed human FOLR1
T5 sequence (P15328 25-234 limits assumed): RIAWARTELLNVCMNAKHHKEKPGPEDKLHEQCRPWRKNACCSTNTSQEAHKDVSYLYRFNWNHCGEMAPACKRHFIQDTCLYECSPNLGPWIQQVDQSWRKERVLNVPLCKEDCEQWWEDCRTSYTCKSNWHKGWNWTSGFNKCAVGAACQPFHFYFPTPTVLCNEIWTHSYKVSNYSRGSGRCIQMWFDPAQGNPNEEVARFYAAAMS
Method: as §5

[12] = molecular target: T2, mouse folate receptor alpha (mFRα), …; experiment: ELISA on mouse FRα, anti-VHH detection
Procedure, shortened: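 An ELISA using anti-VHH detection measured how VHH binding to mouse folate receptor alpha changed with dose. Each EC50 was read from the resulting dose-response curve.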

[13] = molecular target: T1, human folate receptor alpha (hFRα), …; experiment: ITC, VHH injected into 6.5 µM glycosylated human FOLR1
Source text: (§7) To exclude the presence of a potential additional binding site mediated by the CDR4 region, we determined the stoichiometry if the humanized variant h1 2HFO42 (P01500001) and h1 2MFR67 (P01500005) interaction with human FOLR1 in isothermal titration […] (ITC) studies, using glycosylated human FOLR protein (AcroBiosystems Cat. Nr F01-H52H1). All proteins were dialysed overnight to PBS buffer and concentrated using Amicon Ultra 10 kDa cut-off centrifugal filter devices. Human FOLR1 was used at a concentration of 6.5 μM in the cell. Titrations comprised 26×1.5 μL injections of VHH into the protein, with 90 s intervals. An initial injection of ligand (0.4 μL) was made and discarded during data analysis. All data were performed at room temperature. The data were fitted to a single binding site model using the PEAQ ITC analysis software provided by the manufacturer.
Similarly, a stoichiometry of 1:1 was determined for the 2MFR67-FOLR1 interaction. When comparing the thermodynamic parameters, binding of 2MFR67 to FOLR1 comes with an entropic penalty, whereas the entropic contribution for humanised 2HFO42-FOLR1 binding is favorable. This could be a consequence of the CDR4 loop having more freedom in 2MFR67, resulting in an entropic penalty upon binding. […]

[14] = molecular target: T1, human folate receptor alpha (hFRα), …; experiment: competition AlphaLISA against 2MFR67-Flag3-His6 on human FRα
Method: Secondly, the variants were analysed for the capacity to compete with binding of family 3 VHH 2MFR67 to human FRα in a competition AlphaLISA, which is a homogeneous assay without wash steps. In here, human FRα biotinylated through an Avi-tag ^{∘}FO1-H82E2, AcroBiosystems) is captured on streptavidin coated Alpha Donor beads ^{∘}Perkin Elmer, Cat nr. 6760002), while the 2MFR67 is captured on anti-Flag antibody AlphaLISA acceptor beads ^{∘}Perkin Elmer, Cat nr. AL112C). Binding of 2MFR67 to the FRα leads to an energy transfer from one bead to the other, ultimately producing a fluorescent signal. To each well of white low binding 384-well microtitre plates ^{∘}F-bottom, Greiner Cat nr 781904), 5 μl of serial-diluted VHHs are mixed with 5 μl of 2.5 nM monovalent 2MFR67-Flag3-His6 and 5 μl of 15 nM biotinylated human FRα protein. After an incubation for 1 hour at room temperature, streptavidin coated Alpha Donor beads and anti-Flag AlphaLISA acceptor beads were added to a final concentration of 20 μg/mL each in a final volume of 25 μl for an incubation of 1 hour at room temperature in the dark. Interaction between beads was assessed after illumination at 680 nm and reading at 615 nm of on an Ensight instrument. Curve fitting is done in Graphpad Prism 9.0 using 4PL non-linear regression analysis.

[15] = molecular target: T1, human folate receptor alpha (hFRα), …; experiment: BLI, Avi-biotinylated FRα on streptavidin biosensors, VHH 100 nM
Method: (§8) The binding of humanized variants of 2HFO42 was assessed by kinetic binding analysis to mouse and human FRα protein, biotinylated via an Avi-tag, captured on streptavidin biosensors by biolayer interferometry ^{∘}BLI), essentially as described earlier. VHHs were analysed at 100 nM concentration, and off-rates were determined using fitting of 1:1 langmurian interaction. Dissociation constants were compared to 2HFO42^{∘}Q1E, Q5V, Q108L) ^{∘}P101500004) and 2MFR67 ^{∘}Q1E, Q5V, Q108L) ^{∘}P0150000), respectively.

[16] = molecular target: T2, mouse folate receptor alpha (mFRα), …; experiment: as above
Method: as §8

[17] = molecular target: T1, human folate receptor alpha (hFRα), …; experiment: ITC, VHH injected into 6.5 µM glycosylated human FOLR1 in PBS, room temperature, single binding site model
Source text: as §7

T1 sequence (P15328 25-233 limits assumed): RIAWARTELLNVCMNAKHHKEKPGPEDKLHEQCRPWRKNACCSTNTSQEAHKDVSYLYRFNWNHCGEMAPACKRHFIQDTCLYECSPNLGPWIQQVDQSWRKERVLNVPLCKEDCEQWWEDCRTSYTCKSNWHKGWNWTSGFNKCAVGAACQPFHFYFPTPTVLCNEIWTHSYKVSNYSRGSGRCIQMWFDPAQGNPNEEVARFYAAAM

| PE-ELISA (ratio to uncoated well) [1] | PE-ELISA (ratio to uncoated well) [2] | Kd [3] [nM] | koff [3] [s⁻¹] | kon [3] [M⁻¹ s⁻¹] | Kd [4] [nM] | koff [4] [s⁻¹] | kon [4] [M⁻¹ s⁻¹] | binding result [5] | koff [6] [s⁻¹] | koff [7] [s⁻¹] | EC50 [8] [nM] | EC50 [9] [nM] | EC50 [10] [nM] | EC50 [11] [nM] | EC50 (read off the curve) [12] [nM] | stoichiometry (ITC) [13] | IC50 [14] [nM] | koff [15] [s⁻¹] | koff [16] [s⁻¹] | Binder | other results |
| --- | --- | --- | --- | --- | --- | --- | --- | --- | --- | --- | --- | --- | --- | --- | --- | --- | --- | --- | --- | --- | --- |
| 12.4 | 14.1 | 70.9 | 0.0849 | 1.2e+06 | 16.7 | 0.0527 | 3.15e+06 | no binding | 0.108 | 0.0542 | 0.6 | 11.6 | 1.5 | 20.2 | – | – | – | – | – | VHH 2MFR7 (family 1) (VHH, also called 2MFRO7) VHH: QVQLQESGGGLVQPGGSLRLSCAASGFPFSTYYMSWVRQAPGKGLEWVSGINSNGGVIDYADSVKGRFTISRDNAKNTLYLQLNSLKPEDTALYFCARGRAFVATMPSSLRGQGTQVTVSS | – |
| 4.8 | 4.9 | 662 | 0.182 | 275000 | 7.86 | 0.0197 | 2.5e+06 | no binding | 0.0582 | 0.0135 | 0.3 | 20.3 | 1.4 | 7 | – | – | – | – | – | VHH 3HFO26 (family 1) (VHH) VHH: QVQLQESGGGLVQPGGSLRITCVASGFPFSTYYMSWVRQAPGKGLEWVSGINSNGGVIDYADSVKGRFTISRDNAKNTLYLQLNSLKPEDTALYFCARGRAFVATMPSSLRGQGTQVTVSS | – |
| – | – | – | – | – | – | – | – | – | – | – | – | – | – | – | ~4 | 1 | 37.3 | 0.011 | 0.00126 | P01500001 = humanised variant 1 (h1) 2HFO42-His6: 2HF042(Q1E, Q5V, A14P, V40A, L79Y, K83R, Q108L)-HIS6 (VHH, Entry includes the tag; also called P0150001; humanised 2HFO42) VHH: EVQLVESGGGLVQPGGSLRLSCAASGSGFSGMIMGWYRQAPGKQRELVATVTSHGTTNYADSVKGRFTISRDNAKNTVYLQMNSLRPEDTAVYYCNAHFPGIYWGKGTLVTVSS | -TΔS [17]: -3.04 kcal/mol; Kd [17]: 39.2 nM; ΔG [17]: -10.1 kcal/mol; ΔH [17]: -7.07 kcal/mol |
| – | – | – | – | – | – | – | – | – | – | – | – | – | – | – | ~3 | 1 | 5.53 | 0.00353 | 0.000532 | P01500005: 2MFR67(Q1E, Q5V, Q108L)-HIS6 (VHH, Entry includes the tag; also called 2MFR67 (P01500005); P0150005) VHH: EVQLVESGGGLVQAGGSLRLSCAASGSGFSGMIMGWYRQAPGKQRELVATVTSHGTTNYADSVKGRFTISREDSKNTVLLQMNSLKPEDTAVYYCNAHFPGIYWGKGTLVTVSS | -TΔS [17]: 3.57 kcal/mol; Kd [17]: 18.2 nM; ΔG [17]: -10.6 kcal/mol; ΔH [17]: -14.1 kcal/mol |
